# Test results taken from patent US20120258539A1 (TEMPLE UNIVERSITY OF THE COMMONWEALTH OF HIGHER EDUCATION …, published 2012).
# B1: endogenous IKK1 in MCF7 cells (enzyme, UniProt O15111 1-745, looked up)
# chain: MERPPGLRPGAGGPWEMRERLGTGGFGNVCLYQHRELDLKIAIKSCRLELSTKNRERWCHEIQIMKKLNHANVVKACDVPEELNILIHDVPLLAMEYCSGGDLRKLLNKPENCCGLKESQILSLLSDIGSGIRYLHENKIIHRDLKPENIVLQDVGGKIIHKIIDLGYAKDVDQGSLCTSFVGTLQYLAPELFENKPYTATVDYWSFGTMVFECIAGYRPFLHHLQPFTWHEKIKKKDPKCIFACEEMSGEVRFSSHLPQPNSLCSLVVEPMENWLQLMLNWDPQQRGGPVDLTLKQPRCFVLMDHILNLKIVHILNMTSAKIISFLLPPDESLHSLQSRIERETGINTGSQELLSETGISLDPRKPASQCVLDGVRGCDSYMVYLFDKSKTVYEGPFASRSLSDCVNYIVQDSKIQLPIIQLRKVWAEAVHYVSGLKEDYSRLFQGQRAAMLSLLRYNANLTKMKNTLISASQQLKAKLEFFHKSIQLDLERYSEQMTYGISSEKMLKAWKEMEEKAIHYAEVGVIGYLEDQIMSLHAEIMELQKSPYGRRQGDLMESLEQRAIDLYKQLKHRPSDHSYSDSTEMVKIIVHTVQSQDRVLKELFGHLSKLLGCKQKIIDLLPKVEVALSNIKEADNTVMFMQGKRQKEIWHLLKIACTQSSARSLVGSSLEGAVTPQTSAWLPPTSAEHDHSLSCVVTPQDGETSAQMIEENLNCLGHLSTIIHEANEEQGNSMMNLDWSWLTE
# notes: Endogenous protein in cell lysate
# Target: T1, endogenous NIBP (NIK and IKK2 Binding Protein) in MCF7 cells (human (MCF7 cells; species not printed …, UniProt Q96Q05 1-1148, limits assumed)
# T1 construct: Immunoprecipitated from whole cell lysate with anti-NIBP antibody
# Assay: co-immunoprecipitation with anti-NIBP antibody from MCF7 lysate, immunoblot anti-IKK1/2 and anti-IKK1
# Description: Endogenous NIBP interacts with endogenous IKK2 in breast cancer cells. NIBP association with IKK2, but not IKK1, occurred in MCF7 cells. The level of IKK1 was confirmed by immunoblotting of the same blot (without stripping) with a specific anti-IKK1 antibody. The IKK2 co-immunoprecipitated with NIBP was phosphorylated as shown by the band shift compared to the input and the immunoblotting with anti-phospho IKK1/2(Ser-177/181) antibody (FIG. 4).
# T1 sequence (Q96Q05 whole entry): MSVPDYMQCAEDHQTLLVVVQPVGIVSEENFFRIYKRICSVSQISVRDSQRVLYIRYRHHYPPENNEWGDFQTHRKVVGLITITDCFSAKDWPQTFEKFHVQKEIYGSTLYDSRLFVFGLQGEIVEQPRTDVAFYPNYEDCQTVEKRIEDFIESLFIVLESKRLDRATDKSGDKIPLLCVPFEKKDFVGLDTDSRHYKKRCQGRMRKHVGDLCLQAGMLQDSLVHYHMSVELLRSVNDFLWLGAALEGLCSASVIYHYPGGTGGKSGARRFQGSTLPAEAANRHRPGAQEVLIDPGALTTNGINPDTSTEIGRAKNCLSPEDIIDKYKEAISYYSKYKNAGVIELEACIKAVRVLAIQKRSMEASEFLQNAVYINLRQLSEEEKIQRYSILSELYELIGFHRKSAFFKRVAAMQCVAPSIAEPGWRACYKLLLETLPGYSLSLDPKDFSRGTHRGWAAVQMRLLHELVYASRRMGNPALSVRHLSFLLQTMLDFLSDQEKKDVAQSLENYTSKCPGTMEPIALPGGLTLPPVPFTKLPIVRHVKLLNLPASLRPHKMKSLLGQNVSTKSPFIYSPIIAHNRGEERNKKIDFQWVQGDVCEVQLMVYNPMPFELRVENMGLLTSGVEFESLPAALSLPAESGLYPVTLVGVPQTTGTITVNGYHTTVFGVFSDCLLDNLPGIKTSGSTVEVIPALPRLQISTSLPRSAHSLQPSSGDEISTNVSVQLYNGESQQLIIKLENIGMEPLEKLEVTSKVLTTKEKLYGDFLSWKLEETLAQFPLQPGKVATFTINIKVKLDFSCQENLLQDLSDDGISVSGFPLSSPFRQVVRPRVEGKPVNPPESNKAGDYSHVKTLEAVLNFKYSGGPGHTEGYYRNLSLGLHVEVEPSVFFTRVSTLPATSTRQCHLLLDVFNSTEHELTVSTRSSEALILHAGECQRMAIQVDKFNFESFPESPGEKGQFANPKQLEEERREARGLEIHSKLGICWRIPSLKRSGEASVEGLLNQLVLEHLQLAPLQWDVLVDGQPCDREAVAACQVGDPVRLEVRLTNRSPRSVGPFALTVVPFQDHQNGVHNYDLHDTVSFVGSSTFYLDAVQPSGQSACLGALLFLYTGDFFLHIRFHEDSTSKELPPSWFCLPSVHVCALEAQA
binder,measurement,value
B1,binding result,no binding
